From PMC2643122 (Molecular Microbiology, 2008)

Biological target: the molecule itself
Assay: SEC

B1: recombinant full-length Candida albicans Ssa2 protein (natural protein)
chain: not shown
Does B1 bind?
Result: binds
